Assay results: US20220332804A1 (CSL INNOVATION, published 2022)

What was measured:
Assay in all cases: SPR, KD relative to WT C2;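 note: biacore SPR at 37 °C, anti-C2 mAbs captured via immobilised goat anti-human IgG, C2 alanine or serine surface mutants as analytes, 1:1 model fitted, double-referenced sensograms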
human C2 N424A = biological target: T1, human C2 N424A (human, UniProt P06681 21-752)
T1 sequence: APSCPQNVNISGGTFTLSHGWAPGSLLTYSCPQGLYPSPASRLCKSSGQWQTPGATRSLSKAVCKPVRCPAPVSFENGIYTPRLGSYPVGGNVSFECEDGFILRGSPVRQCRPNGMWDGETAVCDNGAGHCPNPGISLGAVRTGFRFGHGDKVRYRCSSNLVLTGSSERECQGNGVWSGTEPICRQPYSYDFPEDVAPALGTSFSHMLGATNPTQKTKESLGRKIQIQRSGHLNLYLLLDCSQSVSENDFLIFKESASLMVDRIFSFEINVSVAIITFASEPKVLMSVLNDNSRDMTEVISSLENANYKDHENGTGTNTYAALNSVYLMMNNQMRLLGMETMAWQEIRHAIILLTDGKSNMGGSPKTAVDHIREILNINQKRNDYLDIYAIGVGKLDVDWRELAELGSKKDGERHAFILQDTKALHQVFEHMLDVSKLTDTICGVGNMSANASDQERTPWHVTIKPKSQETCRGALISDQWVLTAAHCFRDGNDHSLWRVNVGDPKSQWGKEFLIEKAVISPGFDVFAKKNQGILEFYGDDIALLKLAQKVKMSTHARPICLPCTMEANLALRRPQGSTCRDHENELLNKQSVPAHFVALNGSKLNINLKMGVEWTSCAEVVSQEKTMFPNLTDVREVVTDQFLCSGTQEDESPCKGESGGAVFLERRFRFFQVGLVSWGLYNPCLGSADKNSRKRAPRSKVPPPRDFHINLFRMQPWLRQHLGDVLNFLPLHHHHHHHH

human C2 K715A = biological target: T2, human C2 K715A (human, UniProt P06681 21-752)
T2 sequence: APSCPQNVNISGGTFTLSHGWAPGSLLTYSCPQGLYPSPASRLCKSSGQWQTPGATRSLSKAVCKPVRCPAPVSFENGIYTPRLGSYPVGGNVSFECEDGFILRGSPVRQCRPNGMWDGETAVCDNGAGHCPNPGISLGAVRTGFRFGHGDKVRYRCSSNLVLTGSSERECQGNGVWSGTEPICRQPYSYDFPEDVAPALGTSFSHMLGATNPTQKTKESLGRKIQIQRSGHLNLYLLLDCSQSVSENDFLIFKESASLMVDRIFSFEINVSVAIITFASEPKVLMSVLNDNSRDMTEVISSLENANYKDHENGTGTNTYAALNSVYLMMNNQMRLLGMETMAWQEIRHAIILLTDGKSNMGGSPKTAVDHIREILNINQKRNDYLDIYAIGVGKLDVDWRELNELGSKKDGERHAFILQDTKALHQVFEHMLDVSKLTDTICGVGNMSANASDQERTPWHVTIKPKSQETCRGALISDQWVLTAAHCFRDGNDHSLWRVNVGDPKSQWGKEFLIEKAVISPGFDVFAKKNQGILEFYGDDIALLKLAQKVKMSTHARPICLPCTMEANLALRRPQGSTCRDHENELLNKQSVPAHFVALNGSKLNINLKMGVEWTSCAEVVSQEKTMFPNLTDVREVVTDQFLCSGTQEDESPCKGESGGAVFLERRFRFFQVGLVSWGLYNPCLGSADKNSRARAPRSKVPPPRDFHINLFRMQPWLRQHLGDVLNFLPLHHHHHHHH

human C2 L279A = biological target: T3, human C2 L279A (human, UniProt P06681 21-752)
T3 sequence: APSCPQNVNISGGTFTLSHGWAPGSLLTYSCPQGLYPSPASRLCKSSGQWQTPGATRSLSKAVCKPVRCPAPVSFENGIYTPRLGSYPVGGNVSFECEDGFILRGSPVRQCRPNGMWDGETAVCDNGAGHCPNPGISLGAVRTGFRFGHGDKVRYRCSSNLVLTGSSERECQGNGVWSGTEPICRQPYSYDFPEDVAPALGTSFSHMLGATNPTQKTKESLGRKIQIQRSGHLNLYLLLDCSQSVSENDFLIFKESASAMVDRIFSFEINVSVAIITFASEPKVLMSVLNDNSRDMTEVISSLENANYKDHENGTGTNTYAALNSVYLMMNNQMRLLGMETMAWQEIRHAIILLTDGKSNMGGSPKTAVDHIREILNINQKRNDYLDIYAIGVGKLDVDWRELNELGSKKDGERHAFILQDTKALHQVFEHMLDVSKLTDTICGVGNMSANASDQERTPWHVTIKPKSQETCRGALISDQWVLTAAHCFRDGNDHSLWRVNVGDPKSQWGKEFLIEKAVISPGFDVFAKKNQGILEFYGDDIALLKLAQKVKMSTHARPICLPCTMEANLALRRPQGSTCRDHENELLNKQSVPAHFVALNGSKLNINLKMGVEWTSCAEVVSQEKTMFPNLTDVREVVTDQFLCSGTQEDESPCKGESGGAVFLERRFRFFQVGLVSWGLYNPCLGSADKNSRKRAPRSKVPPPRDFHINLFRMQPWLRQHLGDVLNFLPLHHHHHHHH

human C2 F270A = biological target: T4, human C2 F270A (human, UniProt P06681 21-752)
T4 sequence: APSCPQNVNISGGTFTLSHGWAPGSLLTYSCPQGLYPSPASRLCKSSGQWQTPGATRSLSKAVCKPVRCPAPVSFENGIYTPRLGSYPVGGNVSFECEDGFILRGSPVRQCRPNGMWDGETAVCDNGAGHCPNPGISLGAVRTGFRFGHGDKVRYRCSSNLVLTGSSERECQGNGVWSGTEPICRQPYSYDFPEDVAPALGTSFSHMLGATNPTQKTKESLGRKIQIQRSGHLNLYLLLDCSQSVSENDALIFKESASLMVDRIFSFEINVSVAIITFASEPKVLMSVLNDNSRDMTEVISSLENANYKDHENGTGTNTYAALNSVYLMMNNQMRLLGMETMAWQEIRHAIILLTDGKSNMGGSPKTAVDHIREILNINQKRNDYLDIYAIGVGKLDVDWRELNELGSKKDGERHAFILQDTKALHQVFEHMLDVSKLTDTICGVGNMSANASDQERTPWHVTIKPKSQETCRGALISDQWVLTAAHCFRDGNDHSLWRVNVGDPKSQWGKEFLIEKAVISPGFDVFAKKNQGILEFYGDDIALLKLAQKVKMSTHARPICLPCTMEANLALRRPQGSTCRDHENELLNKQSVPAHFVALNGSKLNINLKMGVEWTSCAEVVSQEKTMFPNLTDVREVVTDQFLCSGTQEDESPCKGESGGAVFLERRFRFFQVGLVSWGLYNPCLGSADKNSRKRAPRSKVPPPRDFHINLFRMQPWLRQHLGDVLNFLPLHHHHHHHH

B1: RF16-226 (antibody, human IgG4 S228P, lambda)
heavy: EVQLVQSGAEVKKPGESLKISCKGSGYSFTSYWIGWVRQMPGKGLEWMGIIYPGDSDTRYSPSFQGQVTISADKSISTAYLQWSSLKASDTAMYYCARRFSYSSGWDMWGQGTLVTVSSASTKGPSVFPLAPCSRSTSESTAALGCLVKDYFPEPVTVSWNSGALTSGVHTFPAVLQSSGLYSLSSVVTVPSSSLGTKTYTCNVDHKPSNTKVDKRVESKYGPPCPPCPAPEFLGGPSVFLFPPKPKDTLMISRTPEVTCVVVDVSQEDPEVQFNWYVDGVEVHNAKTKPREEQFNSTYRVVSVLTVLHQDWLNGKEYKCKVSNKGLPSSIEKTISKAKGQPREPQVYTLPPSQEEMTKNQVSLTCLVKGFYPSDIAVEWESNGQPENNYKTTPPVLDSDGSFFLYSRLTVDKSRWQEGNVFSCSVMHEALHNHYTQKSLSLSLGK
light: SYELTQPPSVSVSPGQTARITCSGDALTSKYVAWYQQKSGLAPLLVIYEDTRRPSGIPAKFSGSSSGSVATLTISGAHGDDEADYYCYSTDASGHQRVFGGGTKLTVLSQPKAAPSVTLFPPSSEELQANKATLVCLISDFYPGAVTVAWKADGSPVKAGVETTKPSKQSNNKYAASSYLSLTPEQWKSHRSYSCQVTHEGSTVEKTVAPTECS
notes: pH-dependent anti-C2 antibody from a phage display library; also called WT
Fold diff (human C2 N424A): 0 fold
Fold diff (human C2 K715A): 2 fold
Fold diff (human C2 L279A): 5 fold
Fold diff (human C2 F270A): 10 fold
